Non-standard residues stand in square brackets, D forms with d. No end group written: not given here. Dmt = Cc1cc(O)cc(C)c1C[C@H](N)C(=O)O
Columns and labels:
[1] = biological target: human mu opioid receptor (human) (UniProt P35372)
[2] = biological target: human mu opioid receptor (human) (UniProt P35372); experiment: radioligand binding; displacement of [3H]DAMGO from commercial membranes of CHO cells transfected with the human recombinant mu opioid receptor; Ki, mean ± SEM, n ≥ 3

human mu opioid receptor (human), sequence (P35372 whole entry): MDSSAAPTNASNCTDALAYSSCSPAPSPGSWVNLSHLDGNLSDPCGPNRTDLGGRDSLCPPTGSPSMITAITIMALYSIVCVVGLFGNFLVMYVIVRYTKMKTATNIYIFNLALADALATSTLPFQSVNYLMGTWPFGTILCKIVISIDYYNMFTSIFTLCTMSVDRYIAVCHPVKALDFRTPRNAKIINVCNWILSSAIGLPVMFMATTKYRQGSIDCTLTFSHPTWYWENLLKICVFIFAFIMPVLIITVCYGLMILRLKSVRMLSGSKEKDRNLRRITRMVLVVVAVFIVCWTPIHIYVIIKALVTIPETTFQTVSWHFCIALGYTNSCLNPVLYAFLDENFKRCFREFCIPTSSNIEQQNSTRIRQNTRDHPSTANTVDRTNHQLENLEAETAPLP

B1: EM-2 analog 1 (Dmt-Pro-Phe-Phe-NH2) (peptide)
peptide: [Dmt]PFF-NH2
calcium mobilization, CHO cells with human mu receptor and Gαqi5: α (Emax ratio to the standard agonist) [1]: 0.85 | Ki [2]: 0.54 nM

B2: endomorphin-2 (Tyr-Pro-Phe-Phe-NH2) (peptide)
peptide: YPFF-NH2
calcium mobilization, CHO cells with human mu receptor and Gαqi5: α (Emax ratio to the standard agonist) [1]: 1 | Ki [2]: 1.97 nM

From PMC9998502, “Functional selectivity of EM-2 analogs at the mu-opioid receptor” (Frontiers in Pharmacology, 2023)
